From patent US20110280881A1, “NOVEL ANTI-HSP90 MONOCLONAL ANTIBODY” (RIKEN, priority 2010, published 2011) come the findings set out here.

The subject of assay [1] is OT-I CD8+ T cells. Description: In vivo OT-I CD8+ T cell proliferation by 6H8-OVA after 6H8 antibody given in advance. Set-up: species or system mouse. As to conditions: 6H8 antibody 20 μg in advance, 6H8-OVA (0.3 mg), tail vein, 72 hours. How it is done: The 6H8 antibody or IgG2a [normal mouse IgG2a (nmIgG2a), 20 μg] was diluted with 200 μl of PBS and administered to B6 mice from the tail vein. As a control, a group of animals that received PBS alone was also prepared.
Subsequently, CFSE-labeled OT-I CD8^+ T cells ([…]) were suspended in 200 μl of RPMI and administered from the tail vein. Concurrently, 6H8-OVA (0.3 mg) diluted with 200 μl of PBS was administered from the tail vein. As a control, a group of animals that received PBS alone was also prepared.
72 hours later, splenocytes were recovered from each recipient mouse, and decay of CFSE intensity were measured using FACS Calibur (BD Biosciences) to confirm the proliferation of transferred cells.

Assay [2] relates to GM-CSF-dependent bone marrow-derived dendritic cells. Description: Cytokine production from bone marrow-derived dendritic cells on immobilized 6H8 antibody. Format: cell-based. As to conditions: antibody immobilized on 96-well plate, 12 hours. As to the method: (1) […] of the 6H8 antibody diluted in PBS (10 mg/ml) was added to a 96-well flat plate (Corning Incorporated, product number 3596), and the plate was treated at 4° C. overnight. (2) The plate was washed twice with […] of PBS to remove the excess 6H8 antibody. (3) On day 5 after induction, GM-CSF-dependent bone marrow-derived dendritic cells were added to the plate from (2) at 1×10^5/well and cultured in an incubator at 37° C. with 5% CO2. (4) 12 hours after the start of cultivation, the supernatant was recovered; the amounts of cytokines and chemokines in the supernatant were determined according to a standard protocol using the Bio-Plex suspension array system with 23-Plex Panel (Bio-rad, 171-F11241).

The test system of assay [3] is cell surface HSP90α and β. Briefly: Immunoprecipitation of cell surface HSP90 from DC2.4 living cells. Format: binding. As to conditions: DC2.4 living cells incubated with antibody on ice. How it is done:
Mammalian HSP90 occurs in two isoforms: HSP90α and β. The following experiment was performed to determine whether not only HSP90α but also HSP90β is recognized by the antibody of the present invention. First, DC2.4 living cells were incubated along with an antibody on ice using 6H8, 2A6 or normal mouse IgG as a negative control. After being thoroughly washed to remove the unreacted antibody, the cells were lysed; the lysate was centrifuged at 10,000×g, and the resulting supernatant was incubated along with Protein G-Sepharose. The bound material was subjected to SDS-PAGE, after which blotting was performed using an anti-HSP90α antibody (SPS-771, Assay designs), an anti-HSP90β antibody (PB-118-P1, Neomarkers), or an antibody that recognizes both HSP90α and β (6B1C4, another antibody obtained in Example 1).

The subject of assay [4] is OT-I CD8+ T cells. Briefly: In vivo cross-presentation assay with free 6H8 antibody administered concurrently. As to conditions: 72 hours. Set-up: species or system mouse. How it is done: (1) CFSE-labeled CD8^+ T cells of an OT-I/CD45.1 mouse were transferred to recipient mice from the tail vein, with 6H8-OVA [or 6H8 (F(ab′)2)—OVA, or OVA, or IgG2a-OVA] (0.3 μg) and the free 6H8 antibody [or 6H8 (F(ab′)2) or IgG2a] (30 μg) administered from the tail vein concurrently. (2) 72 hours later, the spleen was recovered from each mouse, and 2×10^6 splenocytes were stained with the PE-CD45.1 antibody in a 96-well round-bottomed plate for 30 minutes (while cooling on ice). (3) The CFSE intensity of CD45.1-positive cells (OT-I CD8^+ T cells) was determined using FACS Canto (BD).

The next assay concerns cell surface HSP90. Description: FACS of 6H8-OVA bound to DC2.4 and DC2.4L cells with anti-OVA antibody. Format: binding. How it is done: Furthermore, using DC2.4L cells lacking cell surface HSP90 (a line detectable with 6H8 antibody, and showing decreased expression levels of cell surface HSP90 and H-2K^b; obtained during cultivation of DC2.4 and established by passage culture), the specificity of 6H8-OVA for cell surface HSP90 was examined. DC2.4 and DC2.4L cells were incubated along with the fractions 15 to 19 containing 6H8-OVA (mixture) (30 μg/ml), after which the cells were stained with the biotinylated anti-OVA monoclonal antibody and PE-Cy5 streptavidin, and analyzed by FACS.

The test system of the next assay is OT-II CD4+ T cells. Description: In vivo division of OT-II CD4+ T cells. Set-up: species or system mouse. As to conditions: series of doses injected into recipient mice.
Assay [5] concerns MO5 (OVA-expressing melanoma). Description: Pulmonary metastasis model with MO5 (OVA-expressing melanoma). Format: in vivo, mouse. As to conditions: MO5 i.v.; 4 days later 6H8-OVA (10 mg) i.v.; counted 15 days later. As to the method:
The pulmonary metastasis suppressing effect of 6H8-OVA was examined in a pulmonary metastasis model that is generated by transvenously administering MO5 (OVA-expressing melanoma) to a mouse. MO5 was administered to the mouse from a vein; 4 days later, PBS or 6H8-OVA (10 mg) was administered from a vein. 15 days later, pulmonary metastatic spots were counted.

Assay [6] relates to cytotoxic T cells specific for OVA257-264 epitope. Briefly: Induction of OVA257-264-specific cytotoxic T cells by immunization (tetramer staining, 51Cr release). Format: in vivo. As to conditions: 3 μg per mouse. As to the method: The mice were immunized twice at a 1-week interval. One week after second immunization, splenocytes were cultured in the presence of the OVA257-264 peptide for 5 days. The resulting cytotoxic T cells were monitored by tetramer staining [T cells were stained using T-Select H-2K^b OVA Tetramer-[…]-PE (MBL, TS5001-1, amount used=1 test/tube) at room temperature for 30 minutes], and standard ^51Cr release assay [2×10^6 each of mouse tumor cells E.G7, supplied by Dr. Michael Bevan at the University of Washington, U.S.A. (see Cell vol. 54:777-785, 1988), and EL4 (purchased from ATCC) were labeled with 50 microcuries of sodium ^51Cr, and used as the target cells; the cytotoxic T cells were added to 5×10^3 target cells as indicated in FIG. 8E; after cultivation for 4 hours, free ^51Cr in the supernatant was measured to calculate the cytotoxic activity; the EL4 cells with or without pulsing with the peptide OVA257-264 were prepared].

B1: 6H8: anti-HSP90 monoclonal antibody produced by hybridoma FERM BP-11222; epitope … (antibody)
VH: QVQLQQSGPELVKPGASVRISCKASGYTFTSYYIHWVKQRPGQGLEWIGWIYPGNVNTKYNEKFKGKATLTADKSSSTAYMQLSSLTSEDSAVYFCARYGNYPFAYWGQGTLVTVSAAKTTAPSVYPLAPVCGDTTGSSVTLGCLVKGYF
VL: DVVMTQTPLSLPVSLGDQASISCRSSQSLVHSNGNTYLHWYLQKPGQSPKLLIYKVSNRFSGVPDRFSGSGSGTDFTLKISRVEAEDLGVYFCSQSTHVPPTFGGGTKLEIKRADAAPTVSIFPPSSEQLTSGGASVVCFLNNFYPKDINVKWKIDGS
With B1, the “effect on promotion of proliferation of CD8+ T cells by 6H8-OVA” value in the assay with OT-I CD8+ T cells [1] is on record as “enhanced”. The “production of IL-1α, IL-1β, IL-2, IL-4, IL-9, IL-10, IL-12(p40), IL-12(p70), IL-13, G-CSF, GM-CSF, KC, MCP-1, MIP-1α, MIP-1β, RANTES” value in assay [2] was “induced”. Besides, in assay [3], the “recognition of cell surface HSP90α and β on living cells (immunoprecipitation)” value is recorded as “recognized”. Moreover, the “effect of concurrently administered free antibody on OT-I CD8+ T cell proliferation reaction by 6H8-OVA” value with OT-I CD8+ T cells [4] (free antibody 30 μg with 6H8-OVA 0.3 μg) is “remarkably enhanced”.

B2: 6H8-OVA: high molecular weight conjugate of the 6H8 antibody and maleimide-activated OVA (conjugate)
VH: B1 VH
VL: B1 VL
chain: GSIGAASMEFCFDVFKELKVHHANENIFYCPIAIMSALAMVYLGAKDSTRTQINKVVRFDKLPGFGDSIEAQCGTSVNVHSSLRDILNQITKPNDVYSFSLASRLYAEERYPILPEYLQCVKELYRGGLEPINFQTAADQARELINSWVESQTNGIIRNVLQPSSVDSQTAMVLVNAIVFKGLWEKAFKDEDTQAMPFRVTEQESKPVQMMYQIGLFRVASMASEKMKILELPFASGTMSMLVLLPDEVSGLEQLESIINFEKLTEWTSSNVMEERKIKVYLPRMKMEEKYNLTSVLMAMGITDVFSSSANLSGISSAESLKISQAVHAAHAEINEAGREVVGSAEAGVDAASVSEEFRADHPFLFCIKHIATNAVLFFGRCVSP
In the case of B2, the “staining of DC2.4L cells with anti-OVA antibody after incubation with conjugate” value with cell surface HSP90 (DC2.4L cells lacking cell surface HSP90, 30 μg/ml) is reported as “not recognized by the OVA monoclonal antibody”. Besides, the “staining of DC2.4 cells with anti-OVA antibody after incubation with conjugate” value in the assay on cell surface HSP90 (DC2.4 cells expressing cell surface HSP90, 30 μg/ml) was “recognized by the anti-OVA monoclonal antibody”. In the assay on OT-II CD4+ T cells, the “promotion of the division of OT-II CD4+ T cells” value is “required a higher dose”. Also, the pulmonary metastatic spots entry in assay [5] was “almost no metastatic spots”. Also, the “tetramer-positive cells after immunization” value in assay [6] (twice at 1-week interval, splenocytes cultured with OVA257-264 5 days) is reported as “produced tetramer-positive cells”. Further, the “cytotoxicity in 51Cr release assay” value in assay [6] (twice, target cells E.G7, EL4 with or without OVA257-264) is “cytotoxicity to OVA257-264 epitope was also observed”. In addition, the “proliferation reaction of adoptively transferred OT-I CD8+ T cells” value with OT-I CD8+ T cells [4] (0.3 μg alone) is given as “slight proliferation reaction”.
